B1: ADI-42898 monovalent antibody-binding fragment (Fab) (Fab, V domains shown)
VH: QVQLVESGGGVVQPGRSLRLSCAASGFTFSSYAMHWVRQAPGKGLEWVAVTWFDVSKKDYADSVKGRFTISRDNSKNTLYLQMNSLRAEDTAVYYCARNLIRYSGSYFPVHGMDVWGQGTTVTVSS
VL: DIVMTQSPLSLPVTPGEPASISCRSSQSLLHTYGYNCLDWYLQRPGQSPQLLISLGSYRASGVPDRFSGSGSGTDFTLKISRVEAEDVGVYYCMQALHPFTFGGGTKVEIK
B2: ADI-42898 (monoclonal antibody, IgG) (antibody, V domains shown)
VH: B1 VH
VL: B1 VL
B3: ADI-42898 single-chain, variable domain fragment (scFv) (scFv, V domains shown)
VH: B1 VH
VL: B1 VL

Assays:
[1] = target: PUUV Gn/Gc on virus-like particles (VLPs) (Puumala orthohantavirus, strain of the …, UniProt A0A0B4U5I0); experiment: ELISA
[2] = target: PUUV Gn^H (head of Gn) (Puumala virus, UniProt P27312); experiment: crystal structure
[3] = target: PUUV Gc ectodomain (Puumala virus, UniProt P27312); experiment: crystal structure
Chain of PUUV Gc ectodomain (P27312 659-1093): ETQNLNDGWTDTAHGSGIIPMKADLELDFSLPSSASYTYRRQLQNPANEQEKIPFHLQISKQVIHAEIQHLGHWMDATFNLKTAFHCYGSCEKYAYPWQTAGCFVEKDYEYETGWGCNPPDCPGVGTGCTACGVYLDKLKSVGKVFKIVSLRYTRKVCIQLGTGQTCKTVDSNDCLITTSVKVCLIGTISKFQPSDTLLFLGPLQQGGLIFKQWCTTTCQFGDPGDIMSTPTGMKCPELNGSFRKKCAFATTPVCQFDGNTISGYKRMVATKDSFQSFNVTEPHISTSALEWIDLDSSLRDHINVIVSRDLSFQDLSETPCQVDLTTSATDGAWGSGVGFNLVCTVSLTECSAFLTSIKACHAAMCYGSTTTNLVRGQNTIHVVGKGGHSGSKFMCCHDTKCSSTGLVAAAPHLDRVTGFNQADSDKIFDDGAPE

Chain of PUUV Gn^H (head of Gn) (P27312 20-381): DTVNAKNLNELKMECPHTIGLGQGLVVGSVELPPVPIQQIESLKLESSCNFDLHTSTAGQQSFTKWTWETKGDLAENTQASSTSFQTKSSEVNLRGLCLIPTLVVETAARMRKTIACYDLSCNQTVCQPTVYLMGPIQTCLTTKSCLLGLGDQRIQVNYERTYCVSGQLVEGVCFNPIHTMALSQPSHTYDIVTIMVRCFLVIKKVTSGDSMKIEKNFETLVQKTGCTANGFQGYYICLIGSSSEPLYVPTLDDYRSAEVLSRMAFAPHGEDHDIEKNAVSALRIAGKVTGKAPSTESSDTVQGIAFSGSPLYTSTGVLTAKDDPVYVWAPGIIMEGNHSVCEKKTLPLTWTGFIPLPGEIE

| Binder | binding result [1] | binding result [2] | binding result [3] |
| --- | --- | --- | --- |
| B1 | binds | – | – |
| B2 | binds | – | – |
| B3 | – | binds | binds |

From article PMC11721787 (Science translational medicine, 2023)
